Experimental data taken from patent US20130261049A1, “ALPHABODIES SPECIFICALLY BINDING TO CLASS-I VIRAL FUSION PROTEINS AND METHODS FOR PRODUCING THE SAME” (priority 2011, published 2013).
Where two headings read alike, the source gives them in different places.

Tests used:
[1] = test system: HIV strain HXB2 in PBMC; test: microbe, parasite or virus in culture; settings: read-out: 50% inhibition concentration (IC50)
Procedure: PBMC were infected with 4000 TCID50/ml of virus and added to serial dilutions of scAB_C2 starting at 2 microM. After 7 days, the amplification of the virus in absence and presence of scAB_C2 was monitored by measuring the viral p24 concentration. The maximal p24 concentration was measured when PBMC and virus were incubated without inhibitory molecules and was set at 100% viral amplification. As controls, the clinically approved T20 (Fuzeon®, Roche) was used, as well as the CXCR4 antagonist, AMD3100 (Mozobile™, Genzyme).

[2] = test system: HIV strain HXB2 in MT4-X4 cells; test: microbe, parasite or virus in culture; settings: read-out: 50% inhibition concentration (IC50)
Source text: The virus used in this assay was the laboratory adapted reference strain HXB2 virus using CXCR4 as co-receptor. Cells were infected with 100 TCID50/ml of virus in the presence of three-fold dilutions of Alphabody starting at 2.5 microM. […] MTT is reduced to formazan by living cells. Solubilization of the formazan crystals results in a colored product that can be measured by spectrophotometry at 540 nm. The cellular toxicity of the Alphabodies was monitored in the same assay using the same read-out, i.e. cell survival. As controls, the clinically approved T20 peptide (Fuzeon®, Roche) was used, as well as the CXCR4 antagonist, AMD3100 (Mozobile™, Genzyme).

[3] = Aggregation tendency (visual inspection, OD 340 nm, SEC profiles, SDS-PAGE); assay type: physicochemical; settings: concentration ranges tested, typically up to 1 μM
Procedure: (§1) However, for these constructs, subcloning of synthetic genes was performed in the pET16b vector (Novagen), instead of in pET22b, in order to have an N-terminal 10-histidine tag.
as §1

[4] = molecular target: HIV-1 gp41 HR2-derived biotinylated peptide C36 (HIV-1 HXB2); test: ELISA, biotinylated peptide on streptavidin plates, sigmoid fit (apparent KD)
[5] = CD thermal denaturation scan in GuHCl; assay type: physicochemical; settings: CD at 222 nm, 11 microM protein in 5 M GuHCl
Procedure: This coding sequence was subcloned into the pET22b vector (Novagen). […] The resulting construct was transformed into the host E. coli strain BL21(DE3) harboring a chromosomal copy of the T7 polymerase gene under control of the lacUV5 promoter (DE3 lysogen). Transformed cells were grown in medium supplemented with ampicillin and protein expression was induced by the addition of IPTG to exponentially growing cultures. Cells containing the expressed Alphabodies were collected by centrifugation and the pellets were resuspended in 50 mM Tris, 500 mM NaCl, pH 7.8. Cells were then disrupted by sonication and spun down for cell debris removal. The cleared supernatants were applied onto a HITrap IMAC HP column (GE Healthcare) loaded with Ni^2+ ions. Bound proteins were eluted by applying an imidazole gradient from 5 to 1000 mM. Alphabody-containing fractions were pooled, concentrated and loaded on a Superdex 75 size exclusion chromatography (SEC) column (GE Healthcare). During this final purification step, the buffer was changed to 50 mM Tris, 150 mM NaCl, pH 7.8.

[6] = PBMC, HXB2 virus, 7 day, viral p24
[7] = MT4-X4 cells, HXB2 virus, 5 day, cell survival by MTT

Q: With `c1cc(CN2CCCNCCNCCCNCC2)ccc1CN1CCCNCCNCCCNCC1` [AMD3100] as the molecule, how does the IC50 ([1]; Human immunodeficiency virus 1, HXB2, PBMC, 168 h) read?
A: 97 nM

Q: And the IC50 ([2]; Human immunodeficiency virus 1, HXB2, 120 h)?
A: 54 nM

Q: With enfuvirtide as the molecule, how does the IC50 [1, 6] read?
A: 60 nM

Q: What about the IC50 [2, 7] of the same molecule?
A: 6 nM

B1: scAB_Bis: optimized bispecific single-chain Alphabody binding gp41 HR2 and N-trimer, SEQ ID No: 78 (protein)
chain: MGHHHHHHHHHHSSHIEGRHGSAIQQIQKAIATIQKAIAWIQKKIYMITGGSGGSGGDMAMYAIQIAILIIQAQIQQIQNEIALMTLGSGGGGSGGDIQQIQKQIVAIMKQIVAIVKQISAITP
modifications: Alphabody helix sequence scAB_Bis
Q: For B1, which tendency to aggregate [3] is on record?
A: None of the three Alphabodies showed tendency to aggregate

B2: scAB_RsvN1: Alphabody with grafted HRSV N-trimer-like binding groove, SEQ ID No: 71 (protein)
chain: SAEIQKIQSAIASTQQAIASLQNAIYVFTGGSGGSGGMSIEEIQKQIAAIQKQIAAIQKQIYRMTGSGGGGSGMSINEIKKQLLAINKQVVAIAQQVSAMSPSR
modifications: Alphabody ′scAB_RsvN1′ sequence
Q: With B2 as the molecule, how does the tendency to aggregate [3] read?
A: None of the three Alphabodies showed tendency to aggregate

B3: Alphabody scAB013_C2 with C-terminal Leu-Glu-(His)6 tag (designed binder)
chain: MSIEEIQKQIAAIQKQIAAIQKQIYRMTGGSSGGSMQMYTIQIQILIIQAQIQQIQNQIELMTLGGSSGGMSIEEIQKQIAAIQKQIAAIQKQIYRMTPLEHHHHHH
Q: Which Kd [4] does the source give for B3 here?
A: > 10 µM

B4: scAB_RsvN2: Alphabody with grafted HRSV N-trimer-like binding groove, SEQ ID No: 72 (protein)
chain: SAAIESTQQAIASIQNAIAVIQQKIYDLTGGSGGSGGMSIEEIQKQIAAIQKQIAAIQKQIYRMTGSGGGGSGMSLLEINKQVVAISQQISAITKQILRMKNTP
modifications: Alphabody ′scAB_RsvN2′ sequence
Q: With B4 as the molecule, how does the tendency to aggregate [3] read?
A: None of the three Alphabodies showed tendency to aggregate

B5: scAB_RsvC2: Alphabody with grafted HRSV HR2-like B-helix, SEQ ID No: 75 (protein)
chain: MSIEEIQKQIAAIQKQIAAIQKQIYRMTGGSGGSGGDVQIKIIQSQIYIIQSDILLIQAQISRMTGSGGGGSGMSIEEIQKQIAAIQKQIAAIQKQIYRMTP
modifications: Alphabody ′scAB_RsvC2′ sequence
Q: With B5 as the molecule, how does the tendency to aggregate [3] read?
A: None of the three Alphabodies showed tendency to aggregate

B6: scAB013_C2: gp41 HR2-mimicking Alphabody, SEQ ID No: 69, expressed with C-terminal (His)6 tag (protein)
chain: MSIEEIQKQIAAIQKQIAAIQKQIYRMTGGSSGGSMQMYTIQIQILIIQAQIQQIQNQIELMTLGGSSGGMSIEEIQKQIAAIQKQIAAIQKQIYRMTP
modifications: C-terminal His6 tag; Alphabody ′scAB013_C2′ sequence
Q: For B6, which IC50 [1, 6] is on record?
A: 218 nM

Q: What about the “transition temperature Tm” value [5] of the same molecule?
A: 72 °C

Q: And the IC50 [2, 7]?
A: 62 nM

B7: scAB013_C2mut: monofunctional control of scAB_Bis with B-helix mutations only, SEQ ID No: 80 (protein)
chain: MGHHHHHHHHHHSSHIEGRHMSIEEIQKQIAAIQKQIAAIQKQIYRMTGGSGGSGGDMAMYAIQIAILIIQAQIQQIQNEIALMTLGSGGGGSGMSIEEIQKQIAAIQKQIAAIQKQIYRMTP
modifications: Alphabody helix sequence scAB013_C2mut
Q: With B7 as the molecule, how does the tendency to aggregate [3] read?
A: None of the three Alphabodies showed tendency to aggregate

B8: scAB_Env03mut: monofunctional control of scAB_Bis with A- and C-helix mutations only, SEQ ID No: 79 (protein)
chain: MGHHHHHHHHHHSSHIEGRHGSAIQQIQKAIATIQKAIAWIQKKIYMITGGSGGSGGGSIEEIQKQIAAIQKQIAAIQKQIYAITGSGGGGSGGDIQQIQKQIVAIMKQIVAIVKQISAITP
modifications: Alphabody helix sequence scAB_Env03mut
Q: For B8, which tendency to aggregate [3] is on record?
A: None of the three Alphabodies showed tendency to aggregate
